Results on 20 molecules are retold here after patent publication US7026443.

Where two headings read alike, the source gives them in different places.

The target in assay [1] is HLA-A*1101 (human). Nature of the assay: competition of unlabeled peptide with 125I-labeled standard probe peptide for purified HLA-A*1101, gel filtration. Background: SEC sorts molecules by how far they enter the pores of the column.
Assay [2] addresses HLA-A*0201 (human). In words: competition with a 125I-labeled standard peptide for purified HLA-A*0201, gel filtration; ratio to the standard peptide.
Assay [3] addresses HLA-A*0301 (human). Nature of the assay: competition with a 125I-labelled standard peptide for purified HLA-A*0301, gel filtration; value relative to the standard peptide.
Assay [4] deals with HLA-A*1101 (human).
Assay [5] deals with HLA-A*3101 (human).
Assay [6] deals with HLA-A*3301 (human).
Assay [7] concerns the target HLA-A*0301 (human).
For assay [8], the target named is HLA-A*6801 (human).
Assay [9] concerns the target HLA-A*0301 (human). The source holds these as a separate data set.
Assay [10] concerns the target HLA-A*1101 (human). Nature of the assay: competition binding assay; purified HLA-A*1101, unlabeled peptide against 125I-labeled probe peptide, gel filtration.
Assay [11] has as its target HLA-A*0201 (purified HLA class I molecule) (human). Nature of the assay: competition with 125I-labeled standard peptide for purified HLA-A*0201, gel filtration; ratio to the standard peptide.
Assay [12] deals with HLA-A*0201 (human). Nature of the assay: competition with a 125I-labelled probe peptide for purified HLA-A*0201, gel filtration.
Assay [13] deals with HLA-A*0301 (human). Nature of the assay: competition against a 125I-labeled standard probe peptide for purified HLA-A*0301, gel filtration; relative binding.
Assay [14] concerns the target HLA-A*1101 (human). Nature of the assay: competition with 125I-radiolabeled standard probe peptide for purified HLA-A*1101, gel filtration.
In assay [15] the target is HLA-A*1101 (human). In words: competition with 125I-labelled standard probe peptide for purified HLA-A*1101, gel filtration.
Assay [16] concerns the target HLA-A*0301 (human). Nature of the assay: competition of unlabeled peptide against 125I-labeled standard probe peptide for purified HLA-A*0301, gel filtration.
The target in assay [17] is HLA-A*0101 (human). Nature of the assay: competition with 125I-labelled standard peptide for purified HLA-A*0101, bound and free separated by gel filtration.
For assay [18], the target named is HLA-A*1101 (human). Nature of the assay: competition with 125I-labeled standard probe peptide for purified HLA, gel filtration.
Assay [19] has as its target HLA-A*0301 (human). The assay is described as above.
The target in assay [20] is HLA-A*1101 (human). In words: competition against a 125I-labelled standard probe peptide for purified HLA-A*1101, bound and free separated by gel filtration; value relative to the standard peptide.
The target in assay [21] is purified HLA-A*0201 molecules (human). In words: competition with 125I-labelled standard probe peptide for purified HLA-A*0201; bound and free peptide separated by gel filtration.
In assay [22] the target is HLA-A*0301 (human). Nature of the assay: competition of unlabeled peptide with 125I-labeled standard probe peptide for purified HLA-A*0301, gel filtration.
Assay [23] has as its target HLA-A*0201 (purified HLA class I molecule) (human). Nature of the assay: competition assay: unlabeled peptide inhibits binding of a 125I-labeled standard probe peptide to purified HLA-A*0201, gel filtration read-out.
Assay [24] deals with HLA-A*1101 (human). In words: inhibition of binding of a 125I-labelled standard peptide to purified HLA-A*1101, with gel filtration separation.
In assay [25] the target is HLA-A*1101 (human). Nature of the assay: competition with a 125I-labeled standard probe peptide for purified HLA-A*1101, gel filtration.
Assay [26] deals with HLA-B*3501 (human). Nature of the assay: competition with 125I-labelled standard peptide for purified HLA, gel filtration; relative binding.
In assay [27] the target is HLA-B*5301 (human). The assay is described as above.
For assay [28], the target named is HLA-B*0702 (human). The description is as above.
The target of assay [29] is HLA-B*5101 (human). The description is as above.

As for TMLCMCCK (modifications not checked) [HPV18 E7 60-67 peptide TMLCMCCK (SEQ ID NO: 41224)], the binding affinity ratio (IC50 of standard peptide / IC50 of test peptide) (ratio relative to standard peptide) in assay [1] came out at 0.024.
On to LLTTNIHPA (modifications not checked) [HPV18 E1 peptide … (position 570, 9 amino acids)], for which, in [2], the relative binding ratio (IC50 of standard peptide / IC50 of test peptide) came to 0.18.
Turning to GVLILALLR (modifications not checked) [HPV45 E1 peptide … (position 265, 9 amino acids)], the relative binding ratio (IC50 of standard peptide / IC50 of test peptide) in [3] came out at 0.0058.
As for CATMCRHYK (modifications not checked) [HPV16 E1 peptide … (position 405, 9 amino acids)], the binding affinity ratio (IC50 of standard peptide / IC50 of test peptide) in [4] worked out at 0.0098; in [5], 0.0077; in [6], 0.01; in assay [7], 0.0012; in [8] it was 0.0056. For the same molecule, the relative binding ratio (IC50 of standard peptide / IC50 of test peptide) (ratio to standard peptide) in [9] was determined as 0.0012.
Consider EGTGCNGWFY (modifications not checked) [HPV31 E1 position 10 peptide … (SEQ ID NO: 41699)], for which the binding affinity ratio (relative to the standard peptide) in assay [10] turned out to be 0.0002.
CLDCKWGVLI (modifications not checked) [HPV45 E1 peptide … (position 259, 10 amino acids)]: the relative binding ratio (IC50 of standard peptide / IC50 of test peptide) in [11] was determined as 0.0002.
Turning to AIFGVNPTI (modifications not checked) [HPV18 E1 246 peptide … (SEQ ID NO: 3274)], the relative binding ratio (IC50 of standard peptide / IC50 of test peptide) (ratio to standard peptide) in assay [12] amounted to 0.0021.
For WTYFDTYMR (modifications not checked) [HPV18 E1 peptide … (position 536, 9 amino acids)], in [13], the binding affinity ratio (IC50 of the standard peptide / IC50 of the test peptide) came out at 0.0005. Besides, the relative binding ratio (IC50 of standard peptide / IC50 of test peptide) in assay [14] turned out to be 0.012.
In the case of LCPEEKQRH (modifications not checked) [HPV31 E6 peptide … (position 110, 9 amino acids)], the relative binding ratio (IC50 of standard peptide / IC50 of test peptide) (ratio to standard peptide) in [15] worked out at 0.0001; in assay [16], 0.0003.
Turning to ELRHYSDSVY (modifications not checked) [HPV18 E6 77 peptide …], the relative binding ratio (IC50 of the standard peptide / IC50 of the test peptide) (ratio to standard peptide) in assay [17] was found to be 0.0037.
Turning to PLCPEEKQR (modifications not checked) [HPV31 E6 peptide … (position 109, 9 amino acids)], the relative binding ratio (IC50 of standard peptide / IC50 of test peptide) (ratio to standard peptide) in [15] came to 0.0005; in assay [16] it was 0.0002.
As to YVQAIVDKK (modifications not checked) [HPV18 E1 peptide … (position 19, 9 amino acids)], in [13], the binding affinity ratio (IC50 of the standard peptide / IC50 of the test peptide) was found to be 0.0005. In addition, the values for the relative binding ratio (IC50 of standard peptide / IC50 of test peptide) (ratio to standard peptide) in [18] and in assay [19] were 0.029 and 0.0005, respectively. Also, in [14], the relative binding ratio (IC50 of standard peptide / IC50 of test peptide) is 0.029.
Take QVLHVLKRK (modifications not checked) [HPV18 E1 peptide … (position 80, 9 amino acids)]: the relative binding ratio (IC50 of standard peptide / IC50 of test peptide) in assay [20] is 0.002.
As for MVQWAYDNDI (modifications not checked) [HPV16 E1 360 peptide …], the binding affinity ratio (IC50 of the standard peptide / IC50 of the test peptide) in [21] came out at 0.0001.
Take LILALLRYK (modifications not checked) [HPV45 E1 267-275 peptide … (SEQ ID NO: 37427)]: the relative binding ratio (IC50 of the standard peptide / IC50 of the test peptide) in [22] was found to be 0.27.
Take LLITSNINA (modifications not checked) [HPV31 E1 peptide … (position 542, 9 amino acids)]: the relative binding ratio (IC50 of standard peptide / IC50 of test peptide) in [23] was found to be 0.0022.
Turning to GDTPEWIQR (modifications not checked) [HPV45 E1 peptide … (position 327, 9 amino acids)], in assay [3], the relative binding ratio (IC50 of standard peptide / IC50 of test peptide) stood at 0.0008.
Regarding YNIVTFCCK (modifications not checked) [HPV16 E7 position 52 9-mer peptide … (SEQ ID NO: 40241)], the relative binding ratio (IC50 of standard peptide / IC50 of test peptide) in assay [24] is 0.0022.
AFRDLCIVY (modifications not checked) [HPV16 E6 peptide … (position 53, 9 amino acids; SEQ ID NO: 40120)]: the relative binding ratio (IC50 of standard peptide / IC50 of test peptide) in assay [25] amounted to 0.0001.
Consider SPRLQEISL (modifications not checked) [HPV45 E1 110 … (B07 supermotif peptide, 9 amino acids)], for which the binding affinity ratio (IC50 of standard peptide / IC50 of test peptide) in [26] was 0.0008; in [27], 0.0002; in [28] it was 0.62; in assay [29], 0.0005.
